In US20250376495:

Molecular target: ubiquitin, P0CG48
Sequence (P0CG48 whole entry, looked up): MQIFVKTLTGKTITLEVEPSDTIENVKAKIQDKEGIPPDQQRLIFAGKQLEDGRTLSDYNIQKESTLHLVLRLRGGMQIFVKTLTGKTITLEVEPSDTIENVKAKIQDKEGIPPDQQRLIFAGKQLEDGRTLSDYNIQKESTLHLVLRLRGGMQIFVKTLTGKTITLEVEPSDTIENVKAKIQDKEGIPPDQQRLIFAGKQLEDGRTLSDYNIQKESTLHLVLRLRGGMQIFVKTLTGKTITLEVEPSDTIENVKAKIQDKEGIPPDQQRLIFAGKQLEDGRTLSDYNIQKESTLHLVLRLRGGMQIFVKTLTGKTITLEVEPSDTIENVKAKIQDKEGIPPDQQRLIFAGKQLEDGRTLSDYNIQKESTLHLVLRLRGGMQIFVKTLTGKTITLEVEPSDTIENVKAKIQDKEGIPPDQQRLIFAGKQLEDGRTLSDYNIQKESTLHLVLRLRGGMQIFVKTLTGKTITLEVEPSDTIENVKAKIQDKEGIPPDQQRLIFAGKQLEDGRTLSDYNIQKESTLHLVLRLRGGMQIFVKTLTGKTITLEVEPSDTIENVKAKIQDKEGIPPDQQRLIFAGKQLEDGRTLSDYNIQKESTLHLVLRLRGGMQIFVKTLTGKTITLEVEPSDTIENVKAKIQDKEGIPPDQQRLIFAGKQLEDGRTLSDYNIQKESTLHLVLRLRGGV

B1: TRIM21 RING E13A (protein)
chain: MASAARLTMMWEAVTCPICLDPFVEPVSIECGHSFCQECISQVGKGGGSVCPVCRQRFLLKNLRPNRQLANMVNNLKEISQEARE
In the case of B1, the “Ube2W-mediated TRIM21 RING monoubiquitination time-course” value is reported as “TRIM21 mutants E13A and E13R both showed a slight reduction in activity”.

B2: TRIM21 RING E13R (protein)
chain: MASAARLTMMWERVTCPICLDPFVEPVSIECGHSFCQECISQVGKGGGSVCPVCRQRFLLKNLRPNRQLANMVNNLKEISQEARE
For B2, the “Ube2W-mediated TRIM21 RING monoubiquitination time-course” value was “TRIM21 mutants E13A and E13R both showed a slight reduction in activity”.
